Paper PMC6141012 (Nature, 2018)

T1: Prp39 (S. cerevisiae, UniProt P39682 1-629)
T1 sequence: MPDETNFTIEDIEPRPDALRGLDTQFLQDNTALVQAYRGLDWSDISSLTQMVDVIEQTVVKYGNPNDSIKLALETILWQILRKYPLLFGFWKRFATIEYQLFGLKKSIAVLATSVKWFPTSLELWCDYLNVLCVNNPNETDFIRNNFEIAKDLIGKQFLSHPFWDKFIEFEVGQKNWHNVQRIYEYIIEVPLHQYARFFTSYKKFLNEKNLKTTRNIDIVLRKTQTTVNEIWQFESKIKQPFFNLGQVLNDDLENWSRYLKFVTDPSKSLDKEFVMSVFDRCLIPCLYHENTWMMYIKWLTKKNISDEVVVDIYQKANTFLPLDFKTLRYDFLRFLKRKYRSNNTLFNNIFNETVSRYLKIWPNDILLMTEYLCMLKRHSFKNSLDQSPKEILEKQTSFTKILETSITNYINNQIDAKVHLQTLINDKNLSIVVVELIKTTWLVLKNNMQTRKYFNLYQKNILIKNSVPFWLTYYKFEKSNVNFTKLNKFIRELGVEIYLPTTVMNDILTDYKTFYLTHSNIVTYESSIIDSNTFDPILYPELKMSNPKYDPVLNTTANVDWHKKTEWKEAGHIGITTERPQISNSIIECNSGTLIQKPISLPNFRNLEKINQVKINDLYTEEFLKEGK

T2: Snu71 (S. cerevisiae, UniProt P53207 1-620)
T2 sequence (looked up): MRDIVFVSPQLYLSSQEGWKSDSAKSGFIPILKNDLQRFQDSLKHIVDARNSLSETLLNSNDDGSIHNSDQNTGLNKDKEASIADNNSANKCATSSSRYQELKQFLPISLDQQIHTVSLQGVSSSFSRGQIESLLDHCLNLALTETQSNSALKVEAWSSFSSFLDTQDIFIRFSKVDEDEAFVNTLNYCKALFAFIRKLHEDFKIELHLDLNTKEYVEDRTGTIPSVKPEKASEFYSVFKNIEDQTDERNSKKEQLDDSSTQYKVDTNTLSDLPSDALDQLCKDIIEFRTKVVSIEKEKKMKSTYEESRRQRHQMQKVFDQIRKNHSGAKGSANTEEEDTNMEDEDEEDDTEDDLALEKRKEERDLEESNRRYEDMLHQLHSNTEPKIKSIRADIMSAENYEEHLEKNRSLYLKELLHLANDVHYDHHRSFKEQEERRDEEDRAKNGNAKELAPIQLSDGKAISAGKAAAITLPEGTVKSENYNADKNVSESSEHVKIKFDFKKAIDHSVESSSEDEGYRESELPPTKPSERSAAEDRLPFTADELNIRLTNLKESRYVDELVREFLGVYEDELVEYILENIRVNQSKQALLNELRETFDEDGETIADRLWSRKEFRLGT

B1: Nam8 (natural protein, S. cerevisiae, UniProt Q00539 1-523, looked up)
chain: MSYKQTTYYPSRGNLVRNDSSPYTNTISSETNNSSTSVLSLQGASNVSLGTTGNQLYMGDLDPTWDKNTVRQIWASLGEANINVRMMWNNTLNNGSRSSMGPKNNQGYCFVDFPSSTHAANALLKNGMLIPNFPNKKLKLNWATSSYSNSNNSLNNVKSGNNCSIFVGDLAPNVTESQLFELFINRYASTSHAKIVHDQVTGMSKGYGFVKFTNSDEQQLALSEMQGVFLNGRAIKVGPTSGQQQHVSGNNDYNRSSSSLNNENVDSRFLSKGQSFLSNGNNNMGFKRNHMSQFIYPVQQQPSLNHFTDPNNTTVFIGGLSSLVTEDELRAYFQPFGTIVYVKIPVGKCCGFVQYVDRLSAEAAIAGMQGFPIANSRVRLSWGRSAKQTALLQQAMLSNSLQVQQQQPGLQQPNYGYIPSSTCEAPVLPDNNVSSTMLPGCQILNYSNPYANANGLGSNNFSFYSNNNATNTQATSLLADTSSMDLSGTGGQQVIMQGSEAVVNSTNAMLNRLEQGSNGFMFA
B2: Prp42 (natural protein)
chain: MDKYTALIHDENFSTLTLNVSRYPKSLAYWEKLLNYIVKASAPICKSTEPQLLKLIRCTYSSMLNEFPYLENYYIDFALLEYKLGNVSMSHKIFQRGLQAFNQRSLLLWTSYLKFCNNVISHQKQLFKKYETAEEYVGLHFFSGEFWDLYLEQISSRCTSSKKYWNVLRKILEIPLHSFSKFYALWLQRIDDIMDLKQLSQLTSKDELLKKLKIDINYSGRKGPYLQDAKKKLKKITKEMYMVVQYQVLEIYSIFESKIYINYYTSPETLVSSDEIETWIKYLDYTITLQTDSLTHLNFQRALLPLAHYDLVWIKYSKWLINSKNDLLGAKNVLLMGLKFSLKKTEIIKLLYSVICKLNEYVLLRNLLEKIESSYSDNVENVDDFEIFWDYLQFKTFCQNSLYSSRYSDSQSNGLLNKELFDKVWKRLSCKEKKSGQEILLNNLVQFYSKDTVEFVEKNIFQKIIEFGWEYYLQNGMFWNCYCRLIYFDTSRSYLDKRQYIVRKIWPQIDKKFAQSVLPSLTEFCESYFPEEMDTLEEMFTEEP

Experiments:
Test in all cases: cryo-EM structure
Prp42 = biological target: B2
Prp39 = biological target: T1, Prp39
Nam8 = biological target: B1
Snu71 = biological target: T2, Snu71

Row | Binder | binding result (Prp42) | binding result (Prp39) | binding result (Nam8) | binding result (Snu71)
1 | B1 | binds | binds | – | –
2 | Yhc1 (natural protein, S. cerevisiae, UniProt Q05900 1-231, looked up) MTRYYCEYCHSYLTHDTLSVRKSHLVGKNHLRITADYYRNKARDIINKHNHKRRHIGKRGRKERENSSQNETLKVTCLSNKEKRHIMHVKKMNQKELAQTSIDTLKLLYDGSPGYSKVFVDANRFDIGDLVKASKLPQRANEKSAHHSFKQTSRSRDETCESNPFPRLNNPKKLEPPKILSQWSNTIPKTSIFYSVDILQTTIKESKKRMHSDGIRKPSSANGYKRRRYGN | binds | binds | binds | –
3 | B2 | – | binds | – | binds
4 | Snu56 (natural protein, S. cerevisiae, UniProt Q03782 1-492, looked up) MRPRRRGLAYHHTKPKGQLSQGHYPTTSNDGQRRKVGNSEAFQSFDIWKNLDRIRSTKKNAGQFIKGSLLILPMRTEDKQQFDECMDELHKYISKDILRCYPQKEQKDEGMLFYIVLKDFNILDSCFVLSVLLAFQKRLWMAPSEKSYFRVPKNINLTGSFYLPKNIETGRGHIITSYRREQPSSSIVEVGFNVVPDFQQFQVKACHVSKFMNELSNFFSQVEFGKCEANVINYFKREYNRTYSQISLALYELPLIGDGLFDIKSYISKTRPIIETSKAQMIKHISEMKAYNEISGLQGDQFPRQQRPLSNSPSSNSISSSQTIEAGATSYQTQPQRHAVNKPSNVLNSSNRHSGPKTFEDGRYSEGNKPGFMTQDEIKQHCIGTIKASMDAVKKKSSYQILKTYVRCPRQNYIDIVYQNLNDLRSKTNCNIVVLNLNNLHESQMWLESLNTTNYTIFAQAPHPSTIRVISIGGVGEYIVKALELILNILEH | – | – | – | binds
5 | Lea1 (natural protein, S. cerevisiae, UniProt Q08963 1-238, looked up) MKFTPSIVIDAPQYYVDHFNGKYNVDKCVILRDLQLETDSESMPSSLKHLTKPTHILDLTNNDLIMIPDLSRRDDIHTLLLGRNNIVEVDGRLLPMNVQNLTLSNNSIRRFEDLQRLRRAPRTLKNLTLIGNQVCHLANYREHVLRLVPHLETLDFQNVTAEERKSAMSFPRQADGDTLGPVNTAIRDNGSRDKTMEIMNLVVSKMTVERRNELKKQLAEATSLEEIARLEKLLSGGV | – | binds | – | –
